49 molecules from US20200087363A1 (IMMATICS BIOTECHNOLOGIES, published 2020) can be followed below.

B1: AEIIRYIF (peptide)
peptide: AEIIRYIF
B2: KELEERMLHW (peptide)
peptide: KELEERMLHW
B3: EEVLLANALW (peptide)
peptide: EEVLLANALW
B4: GEYNKHAQLW (peptide)
peptide: GEYNKHAQLW
B5: IEQADWPEI (peptide)
peptide: IEQADWPEI
B6: SETILAVGL (peptide)
peptide: SETILAVGL
B7: EECGKAFRVF (peptide)
peptide: EECGKAFRVF
B8: EECGKAFSVF (peptide)
peptide: EECGKAFSVF
B9: HEATFGEKRF (peptide)
peptide: HEATFGEKRF
B10: SEILRVTLY (peptide)
peptide: SEILRVTLY
B11: GEVQENYKL (peptide)
peptide: GEVQENYKL
B12: TEFAVKLKI (peptide)
peptide: TEFAVKLKI
B13: DEMENLLTY (peptide)
peptide: DEMENLLTY
B14: LDGIPTAGW (peptide)
peptide: LDGIPTAGW
B15: AEDARGWTA (peptide)
peptide: AEDARGWTA
B16: NESGKAFNY (peptide)
peptide: NESGKAFNY
B17: TESIGAQIY (peptide)
peptide: TESIGAQIY
B18: VENIFHNF (peptide)
peptide: VENIFHNF
B19: AEAMGKFKQCF (peptide)
peptide: AEAMGKFKQCF
B20: DEVRFFKGNKY (peptide)
peptide: DEVRFFKGNKY
B21: EENTGKTYF (peptide)
peptide: EENTGKTYF
B22: SEVEYINKY (peptide)
peptide: SEVEYINKY
B23: VEIVTIPSL (peptide)
peptide: VEIVTIPSL
B24: LEHPFLVNLW (peptide)
peptide: LEHPFLVNLW
B25: KEKVPGITI (peptide)
peptide: KEKVPGITI
B26: SELNPLALY (peptide)
peptide: SELNPLALY
B27: EECDKAYSF (peptide)
peptide: EECDKAYSF
B28: REDPIVYEI (peptide)
peptide: REDPIVYEI
B29: NEFRRKLTF (peptide)
peptide: NEFRRKLTF
B30: AENRVGKMEA (peptide)
peptide: AENRVGKMEA
B31: EECDKAFHF (peptide)
peptide: EECDKAFHF
B32: IETSSEYFNF (peptide)
peptide: IETSSEYFNF
B33: EDASLMGLY (peptide)
peptide: EDASLMGLY
B34: QELFLQEVRM (peptide)
peptide: QELFLQEVRM
B35: AEDFVWAQW (peptide)
peptide: AEDFVWAQW
B36: NEAEWQEIL (peptide)
peptide: NEAEWQEIL
B37: EESDYITHY (peptide)
peptide: EESDYITHY
B38: TEVSVLLLTF (peptide)
peptide: TEVSVLLLTF
B39: TELGLFGVW (peptide)
peptide: TELGLFGVW
B40: EEYKFPSLF (peptide)
peptide: EEYKFPSLF
B41: TEFHGGLHY (peptide)
peptide: TEFHGGLHY
B42: EEMERDLDMY (peptide)
peptide: EEMERDLDMY
B43: REVDPDDSYVF (peptide)
peptide: REVDPDDSYVF
B44: EECGKAFKKF (peptide)
peptide: EECGKAFKKF
B45: MELLFLDTF (peptide)
peptide: MELLFLDTF
B46: SESDGIEQL (peptide)
peptide: SESDGIEQL
B47: DEQRRQNVAY (peptide)
peptide: DEQRRQNVAY
B48: NEIGQELTGQEW (peptide)
peptide: NEIGQELTGQEW
B49: QELMAFSFAGL (peptide)
peptide: QELMAFSFAGL

Where only a bound is given, the exact number is not on record here.

This assay concerns the target T1, HLA-B*44:05 (human).
T1 construct: also called peptide-receptive MHC class I molecule
In words: UV peptide exchange, anti-b2m ELISA. Summed up: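 Peptide-receptive HLA-B*44:05 monomers after UV-induced exchange were diluted 100-fold and captured on streptavidin-coated plates for 1 h at 37 °C. Bound complexes were detected with 2 µg/ml HRP-anti-β2m (1 h, 37 °C) and TMB, read at 450 nm. β2m signal reflects peptide-stabilized complex yield.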
In turn, B1 registered a peptide exchange yield of 10 to 20%.

As for B2, the peptide exchange yield was more than 75%.

On to B3, for which the peptide exchange yield is 50 to 75%.

For B4, the peptide exchange yield is more than 75%.

B5: the peptide exchange yield is 20 to 50%.

Turning to B6, the peptide exchange yield was 50 to 75%.

Consider B7, for which the peptide exchange yield was 50 to 75%.

As for B8, the peptide exchange yield lay within 50 to 75%.

B9 gave a peptide exchange yield of 50 to 75%.

The molecule B10 gave a peptide exchange yield of 50 to 75%.

For B11, the peptide exchange yield was in the range of 50 to 75%.

B12: the peptide exchange yield was 50 to 75%.

As to B13, the peptide exchange yield is more than 75%.

Molecule B14 showed a peptide exchange yield of 50 to 75%.

B15 showed a peptide exchange yield of 20 to 50%.

B16 had a peptide exchange yield of more than 75%.

On to B17, for which the peptide exchange yield is 50 to 75%.

Turning to B18, the peptide exchange yield is 20 to 50%.

In turn, B19 showed a peptide exchange yield of 50 to 75%.

The molecule B20 returned a peptide exchange yield of 20 to 50%.

For the molecule B21, the peptide exchange yield was 50 to 75%.

The molecule B22 returned a peptide exchange yield of 50 to 75%.

As to B23, the peptide exchange yield lay in the range of 50 to 75%.

In turn, B24 had a peptide exchange yield of more than 75%.

Regarding B25, the peptide exchange yield was 50 to 75%.

With B26, the peptide exchange yield lay in the range of 50 to 75%.

Molecule B27 yielded a peptide exchange yield of 20 to 50%.

B28 yielded a peptide exchange yield of 20 to 50%.

Turning to B29, the peptide exchange yield is 50 to 75%.

Molecule B30 registered a peptide exchange yield of 20 to 50%.

As for B31, the peptide exchange yield lay within 50 to 75%.

B32: the peptide exchange yield lay within 50 to 75%.

The molecule B33 gave a peptide exchange yield of 20 to 50%.

The molecule B34 showed a peptide exchange yield of 50 to 75%.

B35: the peptide exchange yield was more than 75%.

On to B36, for which the peptide exchange yield was 50 to 75%.

For the molecule B37, the peptide exchange yield was 50 to 75%.

B38 returned a peptide exchange yield of 50 to 75%.

With B39, the peptide exchange yield was more than 75%.

As to B40, the peptide exchange yield lay within 50 to 75%.

Molecule B41 came in with a peptide exchange yield of 50 to 75%.

With B42, the peptide exchange yield is 50 to 75%.

B43 returned a peptide exchange yield of 50 to 75%.

In turn, B44 gave a peptide exchange yield of 50 to 75%.

For B45, the peptide exchange yield fell in the range of 20 to 50%.

The molecule B46 gave a peptide exchange yield of 50 to 75%.

Consider B47, for which the peptide exchange yield lay within 20 to 50%.

The molecule B48 showed a peptide exchange yield of more than 75%.

B49 showed a peptide exchange yield of more than 75%.
